US11402384B2 (Duke University, priority 2015, dated 2022)
Read-outs that look alike come from different tables or passages of the source.

B1: W224C Acrylodan: tsGBP2_C224 (SEQ ID NO: 28) Acrylodan conjugate (conjugate)
chain: MKLEIFSWWAGDEGPALEALIRLYKQKYPGVEVINATVTGGAGVNAKAVLKTRMLGGDPPDTFQVHAGQELIGTWVVADRMEDLTSLFRQEGWLQAFPKGLIDLLSYKGGIWSVPVNIHRSNVMWYIPAKLKEWGVTPPKTWAEFLATAQTLKRKGLEAPLALGENWTQQHLWESVALATLGADGWNNLWSGKLKFTDPKAVAVWETFGKVLDAANKDAAGLSCQQAVDRVVQGKAAFNIMGDWAAGYMSTTLKLKPGTDFAWTPSPGTSGIFMMLSDSFGLPKGAKNRQNAINWLKLVGSKEGQDTFNPLKGSIAARLDSDPAKYNAYGQSAMKDWKSNRIVGSLVHGAVAPESFMSQFGTVMEIFLQSRNPQAAANAAQAIANQVGLGRGGSHHHHHH
modifications: Acrylodan conjugate; tsGBP2_C224 (224C substitution mutant with signal peptide replaced with M and a GGSHHHHHH at C-terminus)
B2: Q225C Acrylodan: tsGBP2_C225 (SEQ ID NO: 29) Acrylodan conjugate (conjugate)
chain: MKLEIFSWWAGDEGPALEALIRLYKQKYPGVEVINATVTGGAGVNAKAVLKTRMLGGDPPDTFQVHAGQELIGTWVVADRMEDLTSLFRQEGWLQAFPKGLIDLLSYKGGIWSVPVNIHRSNVMWYIPAKLKEWGVTPPKTWAEFLATAQTLKRKGLEAPLALGENWTQQHLWESVALATLGADGWNNLWSGKLKFTDPKAVAVWETFGKVLDAANKDAAGLSWCQAVDRVVQGKAAFNIMGDWAAGYMSTTLKLKPGTDFAWTPSPGTSGIFMMLSDSFGLPKGAKNRQNAINWLKLVGSKEGQDTFNPLKGSIAARLDSDPAKYNAYGQSAMKDWKSNRIVGSLVHGAVAPESFMSQFGTVMEIFLQSRNPQAAANAAQAIANQVGLGRGGSHHHHHH
modifications: Acrylodan conjugate; tsGBP2_C225 (225C substitution mutant with signal peptide replaced with M and a GGSHHHHHH at C-terminus)
B3: D278C Acrylodan: tsGBP2_C278 (SEQ ID NO: 32) Acrylodan conjugate (conjugate)
chain: MKLEIFSWWAGDEGPALEALIRLYKQKYPGVEVINATVTGGAGVNAKAVLKTRMLGGDPPDTFQVHAGQELIGTWVVADRMEDLTSLFRQEGWLQAFPKGLIDLLSYKGGIWSVPVNIHRSNVMWYIPAKLKEWGVTPPKTWAEFLATAQTLKRKGLEAPLALGENWTQQHLWESVALATLGADGWNNLWSGKLKFTDPKAVAVWETFGKVLDAANKDAAGLSWQQAVDRVVQGKAAFNIMGDWAAGYMSTTLKLKPGTDFAWTPSPGTSGIFMMLSCSFGLPKGAKNRQNAINWLKLVGSKEGQDTFNPLKGSIAARLDSDPAKYNAYGQSAMKDWKSNRIVGSLVHGAVAPESFMSQFGTVMEIFLQSRNPQAAANAAQAIANQVGLGRGGSHHHHHH
modifications: Acrylodan conjugate; tsGBP2_C278 (278C substitution mutant with signal peptide replaced with M and a GGSHHHHHH at C-terminus)
B4: W244C Badan: tsGBP2_C244 (SEQ ID NO: 30) Badan conjugate (conjugate)
chain: MKLEIFSWWAGDEGPALEALIRLYKQKYPGVEVINATVTGGAGVNAKAVLKTRMLGGDPPDTFQVHAGQELIGTWVVADRMEDLTSLFRQEGWLQAFPKGLIDLLSYKGGIWSVPVNIHRSNVMWYIPAKLKEWGVTPPKTWAEFLATAQTLKRKGLEAPLALGENWTQQHLWESVALATLGADGWNNLWSGKLKFTDPKAVAVWETFGKVLDAANKDAAGLSWQQAVDRVVQGKAAFNIMGDCAAGYMSTTLKLKPGTDFAWTPSPGTSGIFMMLSDSFGLPKGAKNRQNAINWLKLVGSKEGQDTFNPLKGSIAARLDSDPAKYNAYGQSAMKDWKSNRIVGSLVHGAVAPESFMSQFGTVMEIFLQSRNPQAAANAAQAIANQVGLGRGGSHHHHHH
modifications: Badan conjugate; tsGBP2_C244 (244C substitution mutant with signal peptide replaced with M and a GGSHHHHHH at C-terminus)
B5: W224C Badan: tsGBP2_C224 (SEQ ID NO: 28) Badan conjugate (conjugate)
chain: MKLEIFSWWAGDEGPALEALIRLYKQKYPGVEVINATVTGGAGVNAKAVLKTRMLGGDPPDTFQVHAGQELIGTWVVADRMEDLTSLFRQEGWLQAFPKGLIDLLSYKGGIWSVPVNIHRSNVMWYIPAKLKEWGVTPPKTWAEFLATAQTLKRKGLEAPLALGENWTQQHLWESVALATLGADGWNNLWSGKLKFTDPKAVAVWETFGKVLDAANKDAAGLSCQQAVDRVVQGKAAFNIMGDWAAGYMSTTLKLKPGTDFAWTPSPGTSGIFMMLSDSFGLPKGAKNRQNAINWLKLVGSKEGQDTFNPLKGSIAARLDSDPAKYNAYGQSAMKDWKSNRIVGSLVHGAVAPESFMSQFGTVMEIFLQSRNPQAAANAAQAIANQVGLGRGGSHHHHHH
modifications: Badan conjugate; tsGBP2_C224 (224C substitution mutant with signal peptide replaced with M and a GGSHHHHHH at C-terminus)
B6: D278C Badan: tsGBP2_C278 (SEQ ID NO: 32) Badan conjugate (conjugate)
chain: MKLEIFSWWAGDEGPALEALIRLYKQKYPGVEVINATVTGGAGVNAKAVLKTRMLGGDPPDTFQVHAGQELIGTWVVADRMEDLTSLFRQEGWLQAFPKGLIDLLSYKGGIWSVPVNIHRSNVMWYIPAKLKEWGVTPPKTWAEFLATAQTLKRKGLEAPLALGENWTQQHLWESVALATLGADGWNNLWSGKLKFTDPKAVAVWETFGKVLDAANKDAAGLSWQQAVDRVVQGKAAFNIMGDWAAGYMSTTLKLKPGTDFAWTPSPGTSGIFMMLSCSFGLPKGAKNRQNAINWLKLVGSKEGQDTFNPLKGSIAARLDSDPAKYNAYGQSAMKDWKSNRIVGSLVHGAVAPESFMSQFGTVMEIFLQSRNPQAAANAAQAIANQVGLGRGGSHHHHHH
modifications: Badan conjugate; tsGBP2_C278 (278C substitution mutant with signal peptide replaced with M and a GGSHHHHHH at C-terminus)
B7: S277C Acrylodan: tsGBP2_C277 (SEQ ID NO: 31) Acrylodan conjugate (conjugate)
chain: MKLEIFSWWAGDEGPALEALIRLYKQKYPGVEVINATVTGGAGVNAKAVLKTRMLGGDPPDTFQVHAGQELIGTWVVADRMEDLTSLFRQEGWLQAFPKGLIDLLSYKGGIWSVPVNIHRSNVMWYIPAKLKEWGVTPPKTWAEFLATAQTLKRKGLEAPLALGENWTQQHLWESVALATLGADGWNNLWSGKLKFTDPKAVAVWETFGKVLDAANKDAAGLSWQQAVDRVVQGKAAFNIMGDWAAGYMSTTLKLKPGTDFAWTPSPGTSGIFMMLCDSFGLPKGAKNRQNAINWLKLVGSKEGQDTFNPLKGSIAARLDSDPAKYNAYGQSAMKDWKSNRIVGSLVHGAVAPESFMSQFGTVMEIFLQSRNPQAAANAAQAIANQVGLGRGGSHHHHHH
modifications: Acrylodan conjugate; tsGBP2_C277 (cysteine substitution mutant with signal peptide replaced with M and a GGSHHHHHH at C-terminus)
B8: S277C Badan: tsGBP2_C277 (SEQ ID NO: 31) Badan conjugate (conjugate)
chain: MKLEIFSWWAGDEGPALEALIRLYKQKYPGVEVINATVTGGAGVNAKAVLKTRMLGGDPPDTFQVHAGQELIGTWVVADRMEDLTSLFRQEGWLQAFPKGLIDLLSYKGGIWSVPVNIHRSNVMWYIPAKLKEWGVTPPKTWAEFLATAQTLKRKGLEAPLALGENWTQQHLWESVALATLGADGWNNLWSGKLKFTDPKAVAVWETFGKVLDAANKDAAGLSWQQAVDRVVQGKAAFNIMGDWAAGYMSTTLKLKPGTDFAWTPSPGTSGIFMMLCDSFGLPKGAKNRQNAINWLKLVGSKEGQDTFNPLKGSIAARLDSDPAKYNAYGQSAMKDWKSNRIVGSLVHGAVAPESFMSQFGTVMEIFLQSRNPQAAANAAQAIANQVGLGRGGSHHHHHH
modifications: Badan conjugate; tsGBP2_C277 (cysteine substitution mutant with signal peptide replaced with M and a GGSHHHHHH at C-terminus)
B9: Q225C Badan: tsGBP2_C225 (SEQ ID NO: 29) Badan conjugate (conjugate)
chain: MKLEIFSWWAGDEGPALEALIRLYKQKYPGVEVINATVTGGAGVNAKAVLKTRMLGGDPPDTFQVHAGQELIGTWVVADRMEDLTSLFRQEGWLQAFPKGLIDLLSYKGGIWSVPVNIHRSNVMWYIPAKLKEWGVTPPKTWAEFLATAQTLKRKGLEAPLALGENWTQQHLWESVALATLGADGWNNLWSGKLKFTDPKAVAVWETFGKVLDAANKDAAGLSWCQAVDRVVQGKAAFNIMGDWAAGYMSTTLKLKPGTDFAWTPSPGTSGIFMMLSDSFGLPKGAKNRQNAINWLKLVGSKEGQDTFNPLKGSIAARLDSDPAKYNAYGQSAMKDWKSNRIVGSLVHGAVAPESFMSQFGTVMEIFLQSRNPQAAANAAQAIANQVGLGRGGSHHHHHH
modifications: Badan conjugate; tsGBP2_C225 (225C substitution mutant with signal peptide replaced with M and a GGSHHHHHH at C-terminus)

Experiment: Ratiometric fluorescence glucose titration of fluorescent conjugates
Assay type: binding
Parameters: key to Shape (fluorescence response to glucose) / Change (fluorescence response to glucose): m, monochromatic; d, dichromatic (i.e. spectral shape change); 0, no change
Settings: tsGBP2 cysteine scan; for Kd: ratiometric fit at λ1 and λ2
Outline: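 Single-cysteine glucose-binding protein mutants labelled site-specifically with thiol-reactive environmentally sensitive fluorophores; emission spectra recorded during glucose titration to detect ligand-mediated intensity and spectral-shape changes for ratiometric read-out. Temperature- and ligand-dependent fluorescence landscapes acquired in 1K steps; binding fitted to single-site fractional saturation.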

| Molecule | Shape (fluorescence response to glucose) (Acrylodan conjugate) | Shape (fluorescence response to glucose) (Badan conjugate) | also measured |
| --- | --- | --- | --- |
| B1 | m |  | Kd (Acrylodan conjugate, read-out: Kd ^appKd): 700 µM; Kd (Acrylodan conjugate, read-out: Kd ^trueKd): 900 µM |
| B2 | m |  |  |
| B3 | m |  |  |
| B4 |  | m |  |
| B5 |  | 0 |  |
| B6 |  | 0 |  |
| B7 | 0 |  |  |
| B8 |  | 0 |  |
| B9 |  | m |  |
